Experimental data published in patent US20140120557A1 (published 2014).

Molecular target: T1, 5C.C7 TCR (as measured by surface plasmon resonance) (mouse)
T1 construct: Kept apart from the TCR on cells because the SPR construct is not described
Assay: SPR

B1: MCC-I-Ek (peptide-MHC)
chain 1: ANERADLIAYLKQATK
chain 2: IKEEHTIIQAEFYLLPDKRGEFMFDFDGDEIFHVDIEKSETIWRLEEFAKFASFEAQGALANIAVDKANLDVMKERSNNTPDANVAPEVTVLSRSPVNLGEPNILICFIDKFSPPVVNVTWLRNGRPVTEGVSETVFLPRDDHLFRKFHYLTFLPSTDDFYDCEVDHWGLEEPLRKHWEFEEKTLLPETKE
chain 3: VRDSRPWFLEYCKSECHFYNGTQRVRLLVRYFYNLEENLRFDSDVGEFRAVTELGRPDAENWNSQPEFLEQKRAEVDTVCRHNYEIFDNFLVPRRVEPTVTVYPTKTQPLEHHNLLVCSVSDFYPGNIEVRWFRNGKEEKTGIVSTGLVRNGDWTFQTLVMLETVPQSGEVYTCQVEHPSLTDPVTVEWKAQSTSAQNK
**Q.** How did the Kd turn out when B1 was run?
**A.** Its Kd is 22.9 µM.

**Q.** And the t1/2?
**A.** Its t1/2 is 5.77 s.
